# Paper PMC4449784 (2015)
# T1: HIV-1 Nef VY8 variant with Phe at P3 peptide on HLA-B*35:01 (human)
# T1 peptide: VPFRPMTY
# T2: HIV-1 Nef VY8 variant with Ala at P3 peptide on HLA-B*35:01 (human)
# T2 peptide: VPARPMTY
# T3: HIV-1 Nef VY8 variant with Leu at P4 peptide on HLA-B*35:01 (human)
# T3 peptide: VPLLPMTY
# T4: HIV-1 Nef VY8 variant with Val at P3 peptide on HLA-B*35:01 (human)
# T4 peptide: VPVRPMTY
# T5: HIV-1 Nef VY8 variant with Met at P3 peptide on HLA-B*35:01 (human)
# T5 peptide: VPMRPMTY
# B1: TCR-139 (A1-T/B11-J1) (TCR)
# alpha AV1-1*01 AJ26*01 CDR3: CAVTDNYGQNFVF
# beta BV11-2*01 BJ1-1*01 CDR3: CASSLDLVSTEAFF
# B2: A1-S/B11-J1 (TCR)
# alpha AV1-1*01 AJ26*01 CDR3: CAVSDNYGQNFVF
# beta BV11-2*01 BJ1-1*01 CDR3: CASSLDLVSTEAFF
# B3: H127 (A1-J31/B11) (TCR)
# alpha AV1-1*01 AJ31*01 CDR3: CAVTSGDARLMF
# beta BV11-1*01 BJ2-7*01 CDR3: CASSSDIVSYEQYF
# Tests used:
# Test in all cases: cytokine release
# [1] = molecular target: T1, HIV-1 Nef VY8 variant with Phe at P3 …
# [2] = molecular target: T2, HIV-1 Nef VY8 variant with Ala at P3 …
# [3] = molecular target: T3, HIV-1 Nef VY8 variant with Leu at P4 …
# [4] = molecular target: T4, HIV-1 Nef VY8 variant with Val at P3 …
# [5] = molecular target: T5, HIV-1 Nef VY8 variant with Met at P3 …
Binder,binding result [1],binding result [2],binding result [3],binding result [4],binding result [5]
B1,recognises,recognises,no recognition,recognises,recognises
B2,–,–,no recognition,–,–
B3,no recognition,no recognition,–,no recognition,recognises
